Key:
[1] = molecular target: T1, MACP, CP of an uncharacterized NRP/PK gene cluster from M. aeruginosa NIES843
T1 chain: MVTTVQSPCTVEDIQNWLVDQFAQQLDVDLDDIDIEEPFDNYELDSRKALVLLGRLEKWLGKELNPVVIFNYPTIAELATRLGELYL

[2] = molecular target: T2, FNPCP, CP of an uncharacterized NRP gene cluster from Fischerella
T2 chain: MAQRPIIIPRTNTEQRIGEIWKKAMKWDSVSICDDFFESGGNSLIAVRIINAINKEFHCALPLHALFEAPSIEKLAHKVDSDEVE

[3] = molecular target: T3, FisPCP, PCP of the shinorine gene cluster from Fischerella
T3 chain: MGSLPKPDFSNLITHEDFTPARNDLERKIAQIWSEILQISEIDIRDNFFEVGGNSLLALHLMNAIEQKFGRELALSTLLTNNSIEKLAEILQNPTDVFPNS

[4] = molecular target: T4, FNsACP, homolog of ArCPNp from Fischerella
T4 chain: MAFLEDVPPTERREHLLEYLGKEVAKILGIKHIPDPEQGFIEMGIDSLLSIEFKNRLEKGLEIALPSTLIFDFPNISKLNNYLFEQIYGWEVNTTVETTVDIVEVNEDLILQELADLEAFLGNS

[5] = molecular target: T5, SsPCP, PCP of a thaxtomin cluster from Streptomyces scabiei 87.22
T5 chain: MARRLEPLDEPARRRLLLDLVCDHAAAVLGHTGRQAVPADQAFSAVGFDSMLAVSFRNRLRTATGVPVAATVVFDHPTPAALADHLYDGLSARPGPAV

[6] = molecular target: ScACP, ACP of a putative concanamycin gene cluster from Streptomyces coelicolor A(3)2
[7] = molecular target: AprACP, ACP of the apratoxin (PK/NRP) gene cluster in Lyngbya sp.
[8] = molecular target: T6, APACP, ACP of the glycolipid PKS in Anabaena
T6 chain: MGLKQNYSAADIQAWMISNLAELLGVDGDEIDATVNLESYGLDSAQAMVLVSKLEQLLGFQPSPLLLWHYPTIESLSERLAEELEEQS

[9] = molecular target: T7, APNPCP, CP of an uncharacterized NRP/PK gene cluster from Anabaena
T7 chain: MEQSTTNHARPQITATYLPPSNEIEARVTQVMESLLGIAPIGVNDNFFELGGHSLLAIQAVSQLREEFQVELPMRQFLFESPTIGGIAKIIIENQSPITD

[10] = molecular target: T8, AFACP, ACP of the FAS from Anabaena
T8 chain: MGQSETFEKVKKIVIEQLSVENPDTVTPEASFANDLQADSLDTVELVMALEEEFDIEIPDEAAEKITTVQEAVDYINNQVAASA

[11] = molecular target: T9, SFACP, ACP of the FAS from Synechocystis
T9 chain: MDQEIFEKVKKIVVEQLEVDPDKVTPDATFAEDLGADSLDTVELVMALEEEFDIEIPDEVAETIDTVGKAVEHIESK

B1: SPPT, Sfp-like phosphopantetheinyl transferase (PPTase) from Synechocystis sp. PCC6803 (protein)
chain: MLPQPQIWLCPTDRPLIPGYQALLSSEEMARGERYQRPQDKQRFLTMRLALRILLARQLDCLPQQLQFTYGPQGKPELVDRERRSPWFNVAHSGNYGLIGLSTEGEIGVDLQIMLPKPHYLKLAKRFFAPQEVQQLESLEGEKRTKLFYQLWTAKEAFLKATGKGISGGLNQVIPDENLAKYQYLPDSGDTNHWRLSSQPLLADQGSNDNYWMAIAWCTNEVNQVESNYLPNIQPFQWPRNLDSLP
- Km [1]: 22 µM
- kcat [1]: 0.0717 s⁻¹
- kcat/Km [1]: 3330 M⁻¹ s⁻¹
- phosphopantetheinylation of CP (apo to holo), LC-MS [1]: SPPT also phosphopantetheinylated all CP substrates except ScACP
- relative activity (most active PPTase = 100%) [1]: the low or no activity toward MACP, SsPCP and ScACP
- Km [2]: 7 µM
- kcat [2]: 0.168 s⁻¹
- kcat/Km [2]: 23300 M⁻¹ s⁻¹
- phosphopantetheinylation of CP (apo to holo), LC-MS [2]: SPPT also phosphopantetheinylated all CP substrates except ScACP
- Km [3]: 10 µM
- kcat [3]: 0.0417 s⁻¹
- kcat/Km [3]: 5000 M⁻¹ s⁻¹
- phosphopantetheinylation of CP (apo to holo), LC-MS [3]: SPPT also phosphopantetheinylated all CP substrates except ScACP
- Km [4]: 14.1 µM
- kcat [4]: 0.025 s⁻¹
- kcat/Km [4]: 1670 M⁻¹ s⁻¹
- phosphopantetheinylation of CP (apo to holo), LC-MS [4]: SPPT also phosphopantetheinylated all CP substrates except ScACP
- relative conversion (most active PPTase = 100%) [4]: SPPT promoted >71% relative conversion of eight cyanobacterial CPs
- Km [5]: 14.3 µM
- kcat [5]: 0.0167 s⁻¹
- kcat/Km [5]: 1000 M⁻¹ s⁻¹
- phosphopantetheinylation of CP (apo to holo), LC-MS [5]: SPPT also phosphopantetheinylated all CP substrates except ScACP
- relative activity (most active PPTase = 100%) [5]: the low or no activity toward MACP, SsPCP and ScACP
- phosphopantetheinylation of CP (apo to holo), LC-MS; not modified [6]: SPPT also phosphopantetheinylated all CP substrates except ScACP
- relative activity (most active PPTase = 100%) [6]: the low or no activity toward MACP, SsPCP and ScACP
- Km [7]: 12.9 µM
- kcat [7]: 0.218 s⁻¹
- kcat/Km [7]: 16700 M⁻¹ s⁻¹
- phosphopantetheinylation of CP (apo to holo), LC-MS [7]: SPPT also phosphopantetheinylated all CP substrates except ScACP
- relative conversion (most active PPTase = 100%) [7]: SPPT promoted >71% relative conversion of eight cyanobacterial CPs
- Km [8]: 26.5 µM
- kcat [8]: 0.243 s⁻¹
- kcat/Km [8]: 8330 M⁻¹ s⁻¹
- phosphopantetheinylation of CP (apo to holo), LC-MS [8]: SPPT also phosphopantetheinylated all CP substrates except ScACP
- relative conversion (most active PPTase = 100%) [8]: SPPT promoted >71% relative conversion of eight cyanobacterial CPs
- Km [9]: 17 µM
- kcat [9]: 0.0383 s⁻¹
- kcat/Km [9]: 1670 M⁻¹ s⁻¹
- phosphopantetheinylation of CP (apo to holo), LC-MS [9]: SPPT also phosphopantetheinylated all CP substrates except ScACP
- Km [10]: 13.3 µM
- kcat [10]: 0.245 s⁻¹
- kcat/Km [10]: 18300 M⁻¹ s⁻¹
- phosphopantetheinylation of CP (apo to holo), LC-MS [10]: SPPT also phosphopantetheinylated all CP substrates except ScACP
- relative conversion (most active PPTase = 100%) [10]: SPPT promoted >71% relative conversion of eight cyanobacterial CPs
- Km [11]: 1.5 µM
- kcat [11]: 0.0233 s⁻¹
- kcat/Km [11]: 6500 M⁻¹ s⁻¹
- phosphopantetheinylation of CP (apo to holo), LC-MS [11]: SPPT also phosphopantetheinylated all CP substrates except ScACP
- relative conversion (most active PPTase = 100%) [11]: SPPT promoted >71% relative conversion of eight cyanobacterial CPs

B2: Sfp, phosphopantetheinyl transferase from Bacillus subtilis (protein)
chain: MKIYGIYMDRPLSQEENERFMTFISPEKREKCRRFYHKEDAHRTLLGDVLVRSVISRQYQLDKSDIRFSTQEYGKPCIPDLPDAHFNISHSGRWVIGAFDSQPIGIDIEKTKPISLEIAKRFFSKTEYSDLLAKDKDEQTDYFYHLWSMKESFIKQEGKGLSLPLDSFSVRLHQDGQVSIELPDSHSPCYIKTYEVDPGYKMAVCAAHPDFPEDITMVSYEELL
- Km [1]: 6.7 µM
- kcat [1]: 0.085 s⁻¹
- kcat/Km [1]: 13300 M⁻¹ s⁻¹
- phosphopantetheinylation of CP (apo to holo), LC-MS [1]: APPT, AvPPT, MPPT and Sfp functionalized all substrates
- Km [2]: 11.7 µM
- kcat [2]: 0.242 s⁻¹
- kcat/Km [2]: 20000 M⁻¹ s⁻¹
- phosphopantetheinylation of CP (apo to holo), LC-MS [2]: APPT, AvPPT, MPPT and Sfp functionalized all substrates
- Km [3]: 14 µM
- kcat [3]: 0.0283 s⁻¹
- kcat/Km [3]: 1670 M⁻¹ s⁻¹
- phosphopantetheinylation of CP (apo to holo), LC-MS [3]: APPT, AvPPT, MPPT and Sfp functionalized all substrates
- Km [4]: 10.9 µM
- kcat [4]: 0.04 s⁻¹
- kcat/Km [4]: 3330 M⁻¹ s⁻¹
- phosphopantetheinylation of CP (apo to holo), LC-MS [4]: APPT, AvPPT, MPPT and Sfp functionalized all substrates
- Km [5]: 7.9 µM
- kcat [5]: 0.278 s⁻¹
- kcat/Km [5]: 35000 M⁻¹ s⁻¹
- phosphopantetheinylation of CP (apo to holo), LC-MS [5]: APPT, AvPPT, MPPT and Sfp functionalized all substrates
- relative activity (most active PPTase = 100%) [5]: Among all PPTases, Sfp showed the highest relative activity toward ScACP and SsPCP
- Km [6]: 8.3 µM
- kcat [6]: 0.253 s⁻¹
- kcat/Km [6]: 30000 M⁻¹ s⁻¹
- phosphopantetheinylation of CP (apo to holo), LC-MS [6]: APPT, AvPPT, MPPT and Sfp functionalized all substrates
- relative activity (most active PPTase = 100%) [6]: Among all PPTases, Sfp showed the highest relative activity toward ScACP and SsPCP
- Km [7]: 9 µM
- kcat [7]: 0.0483 s⁻¹
- kcat/Km [7]: 5000 M⁻¹ s⁻¹
- phosphopantetheinylation of CP (apo to holo), LC-MS [7]: APPT, AvPPT, MPPT and Sfp functionalized all substrates
- Km [8]: 15.3 µM
- kcat [8]: 0.368 s⁻¹
- kcat/Km [8]: 25000 M⁻¹ s⁻¹
- phosphopantetheinylation of CP (apo to holo), LC-MS [8]: APPT, AvPPT, MPPT and Sfp functionalized all substrates
- Km [9]: 12 µM
- kcat [9]: 0.0367 s⁻¹
- kcat/Km [9]: 3330 M⁻¹ s⁻¹
- phosphopantetheinylation of CP (apo to holo), LC-MS [9]: APPT, AvPPT, MPPT and Sfp functionalized all substrates
- Km [10]: 11.6 µM
- kcat [10]: 0.163 s⁻¹
- kcat/Km [10]: 13300 M⁻¹ s⁻¹
- phosphopantetheinylation of CP (apo to holo), LC-MS [10]: APPT, AvPPT, MPPT and Sfp functionalized all substrates
- Km [11]: 2.5 µM
- kcat [11]: 0.0367 s⁻¹
- kcat/Km [11]: 15000 M⁻¹ s⁻¹
- phosphopantetheinylation of CP (apo to holo), LC-MS [11]: APPT, AvPPT, MPPT and Sfp functionalized all substrates

B3: FPPT, Sfp-like phosphopantetheinyl transferase (PPTase) from Fischerella sp. PCC9339 (protein)
chain: MGSETNHLWLTAPTNLTLLPDDVHVWRISLDRPESELQALQTTLSSDEIARAQRFYFEQHRQRFVAGRGILRTILGRYLGVEPQAVEFTYELRGKPLLADRFADSGVSFNLSHSQDLALCGVSRNRKIGIDVEYMRSVSDVEALAERFFAPREYEVVRSLPSNQQQQVFFRYWTCKEAYLKAIGVGIVQLEKVEISLTLEQPAKLITDEEWSLIELVPGDHYLGAVAIAGQNLDLKYWQY
- phosphopantetheinylation of CP (apo to holo), LC-MS; no activity [1]: FPPT shared the same substrate scope as SePPT with the exception of its low activity toward SsPCP
- relative activity (most active PPTase = 100%) [1]: FPPT was not competent to activate SsPCP, APACP, APNPCP, MACP, and ScACP
- phosphopantetheinylation of CP (apo to holo), LC-MS; low activity [5]: FPPT shared the same substrate scope as SePPT with the exception of its low activity toward SsPCP
- relative activity (most active PPTase = 100%) [5]: FPPT was not competent to activate SsPCP, APACP, APNPCP, MACP, and ScACP
- phosphopantetheinylation of CP (apo to holo), LC-MS; no activity [6]: FPPT shared the same substrate scope as SePPT with the exception of its low activity toward SsPCP
- phosphopantetheinylation of CP (apo to holo), LC-MS; no activity [9]: FPPT shared the same substrate scope as SePPT with the exception of its low activity toward SsPCP

B4: SePPT, Sfp-like phosphopantetheinyl transferase (PPTase) from Synechococcus elongatus PCC7942 (protein)
chain: MQRPNPSDAVPVPSIPSCDRGPIPNPVTWRTSPEPLFLSAQTVHLWRCSLTRSLSSAEQAIVAADCDRAQAYGSNRRHQFLCGRWWLRQLLSLYLPEEPADFRFQLSPTGKPELPQSNLCFNLSHSGSTLLIAIAWQPVGVDVEQPRSRSWLALARRYFPSAELAAMQQSTDCDRWGLASWVCKEAWIKAQGRTLANSLRHLQCAWTANGQPRLSGLGSEESQVQLLQVDPQEQLWAAIAMPAGWNYQTWTAAIIRKNH
- phosphopantetheinylation of CP (apo to holo), LC-MS; no activity [1]: SePPT showed no activity toward APNPCP, MACP, ScACP, and SsPCP
- phosphopantetheinylation of CP (apo to holo), LC-MS; no activity [5]: SePPT showed no activity toward APNPCP, MACP, ScACP, and SsPCP
- phosphopantetheinylation of CP (apo to holo), LC-MS; no activity [6]: SePPT showed no activity toward APNPCP, MACP, ScACP, and SsPCP
- phosphopantetheinylation of CP (apo to holo), LC-MS; no activity [9]: SePPT showed no activity toward APNPCP, MACP, ScACP, and SsPCP
- relative activity (most active PPTase = 100%) [10]: SePPT demonstrated strong activity toward two ACPs of FASs but no others
- relative activity (most active PPTase = 100%) [11]: SePPT demonstrated strong activity toward two ACPs of FASs but no others

From patent publication US20210087522
